Assay results taken from patent US20250075002A1.

B1: chBG219P (antibody, V domains shown)
VH: EVQLVESGGGLVKPGGSLKLSCAASGFTFNDYIMSWVRQTPEKRLEWVATVSSGGDNTYYPDSVKGRFTISRDNAKNNLYLQMSSLRSEDTALYYCTRYGGLGAMDYWGQGTSVTVSS
VL: DIVMTQSPASLSASVGETVTITCRASGNIHNYLTWYQQKQGKSPQLLVYNAKTLADGVPSRFSGSGSGPQYSLKINSLQPEDFGSYYCQHFWSVPYTFGGGTRLEIK
B2: chBG138P (antibody, V domains shown)
VH: QVQLLQSGAELARPGASVKMSCKASGYTFTTYTMHWIKQRPGQGLEWIGYINPGSDYTHYNQKFKDKATLTADKSSSTAYMHLYSLTSEDSAVYYCARQGNYAAYYFDYWGQGTTLTVSS
VL: DIQMTQSPASLSASVGETVTITCRASGNIHNFLVWYQQKQGKSPQLLVYNAKTLTDGVPSRFSGSGSGTQYSLKIKSLQPEDFGTYYCQNFWNVPFTFGSGTKLEIK
B3: huBG138P-Hz4 (antibody, from another filing, V domains shown)
VH: QVQLVQSGAEVKKPGASVKVSCKASGYTFTTYTMHWVRQAPGQGLEWMGYINPGSDYTHYNQKFKDRVTITADKSASTAYMELSSLRSEDTAVYYCARQGNYAAYYFDYWGQGTLVTVSS
VL: DIQMTQSPSSLSASVGDRVTITCRASGNIHNFLVWYQQKPGKSPKLLIYNAKTLTSGVPSRFSGSGSGTQYTLTISSLQPEDVATYYCQNFWNVPFTFGQGTKLEIK
B4: chBG346P (antibody, V domains shown)
VH: EVQLQQSGAELVKPGASVKISCKASGYTFTNYWMNWVRQRPGQGLEWIGEIDPSDSYTNNNQKFKDKATLTVDKSSSTAYMQLSSLTSEDSAVYYCARGRRTGFAYWGQGTLVTVSS
VL: DIQMTQSPASLSVSVGETVTITCRASENIYSNLAWYQKKQGKSPQLLVYAATNLADGVPSRFSGSGSGTQYSLKINSLQSEDFGNYYCQHFWGTPYTFGGGTKLEIK

How the values were obtained:
[1] = target: Cyno MUC1 (full length), on cells (cyno); test: flow cytometry on HEK293/cyno MUC1 cells
Sequence of Cyno MUC1 (full length), on cells (cyno) (chain, as listed by the source limits assumed, form in doubt): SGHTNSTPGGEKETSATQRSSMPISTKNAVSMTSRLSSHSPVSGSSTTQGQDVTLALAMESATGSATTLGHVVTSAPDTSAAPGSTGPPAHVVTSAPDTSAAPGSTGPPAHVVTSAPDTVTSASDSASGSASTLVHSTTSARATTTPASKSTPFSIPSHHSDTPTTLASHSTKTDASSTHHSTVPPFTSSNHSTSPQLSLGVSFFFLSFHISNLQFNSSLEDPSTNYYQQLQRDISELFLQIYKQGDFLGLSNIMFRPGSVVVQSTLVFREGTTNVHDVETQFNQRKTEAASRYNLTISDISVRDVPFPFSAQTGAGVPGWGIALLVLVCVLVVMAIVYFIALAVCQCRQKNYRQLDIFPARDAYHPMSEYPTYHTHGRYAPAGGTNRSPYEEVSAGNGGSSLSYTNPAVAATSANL

[2] = target: MUC1 as expressed on normal activated human T cells (human) (UniProt P15941); test: FACS, PHA-L-activated human PBMC, live αβTCR+ gate, Donor 191180405C; antibody 10 µg/mL by paragraph 182
Sequence of MUC1 as expressed on normal activated human T cells (human) (P15941 24-1255): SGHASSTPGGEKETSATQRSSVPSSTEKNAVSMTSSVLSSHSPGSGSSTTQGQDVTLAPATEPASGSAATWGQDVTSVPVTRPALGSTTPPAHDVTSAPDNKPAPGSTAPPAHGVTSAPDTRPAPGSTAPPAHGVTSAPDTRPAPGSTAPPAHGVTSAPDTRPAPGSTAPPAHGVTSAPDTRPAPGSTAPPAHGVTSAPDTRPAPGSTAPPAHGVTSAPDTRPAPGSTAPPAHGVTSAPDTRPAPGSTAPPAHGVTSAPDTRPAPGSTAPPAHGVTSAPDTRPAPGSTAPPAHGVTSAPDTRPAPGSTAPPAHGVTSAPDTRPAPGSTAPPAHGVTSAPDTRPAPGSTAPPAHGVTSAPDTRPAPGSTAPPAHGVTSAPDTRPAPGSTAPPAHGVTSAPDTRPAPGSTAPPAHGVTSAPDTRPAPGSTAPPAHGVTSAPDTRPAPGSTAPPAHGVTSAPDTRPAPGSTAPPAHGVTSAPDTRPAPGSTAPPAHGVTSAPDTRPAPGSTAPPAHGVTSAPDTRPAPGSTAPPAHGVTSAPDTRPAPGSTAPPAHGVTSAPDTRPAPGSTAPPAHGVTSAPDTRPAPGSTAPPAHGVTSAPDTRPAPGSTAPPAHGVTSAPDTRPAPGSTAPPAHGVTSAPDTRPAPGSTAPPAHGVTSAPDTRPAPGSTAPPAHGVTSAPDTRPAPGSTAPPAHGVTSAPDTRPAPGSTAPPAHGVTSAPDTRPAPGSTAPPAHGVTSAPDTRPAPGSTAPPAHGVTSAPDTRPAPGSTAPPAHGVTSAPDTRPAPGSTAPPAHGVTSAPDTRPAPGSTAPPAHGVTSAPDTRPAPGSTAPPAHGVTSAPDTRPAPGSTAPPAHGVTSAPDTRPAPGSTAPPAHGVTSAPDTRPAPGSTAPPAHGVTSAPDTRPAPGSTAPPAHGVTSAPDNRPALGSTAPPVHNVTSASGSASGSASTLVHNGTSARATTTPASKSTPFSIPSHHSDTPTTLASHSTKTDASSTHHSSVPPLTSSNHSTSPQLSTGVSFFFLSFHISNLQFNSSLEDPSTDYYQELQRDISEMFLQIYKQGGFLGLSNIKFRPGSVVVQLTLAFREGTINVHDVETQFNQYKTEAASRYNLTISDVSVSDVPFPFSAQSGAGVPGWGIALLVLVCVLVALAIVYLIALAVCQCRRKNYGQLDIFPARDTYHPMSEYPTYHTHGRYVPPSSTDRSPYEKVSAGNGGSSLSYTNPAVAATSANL

[3] = target: MUC1 as expressed on normal activated human T cells (human) (UniProt P15941); test: FACS, PHA-L-activated human PBMC, live αβTCR+ gate, Donor 190980805C; antibody 10 µg/mL by paragraph 182

Row | Binder | EC50 [1] [nM] | percent of αβTCR+ cells in the MUC1-positive gate (dashed box) [2] [%] | percent of αβTCR+ cells in the MUC1-positive gate (dashed box) [3] [%]
1 | B1 | 12.7 | – | –
2 | B2 | 7.55 | – | –
3 | B3 | – | 2.3 | 2.4
4 | B4 | 41.8 | – | –
